{"source": "paper PMC6261512", "about": "(Protein expression and purification, 2018)", "proteins": {"B1": {"name": "MBP-5-HT3A-ICD chimera (maltose-binding protein and the intracellular domain of the mouse serotonin type 3A receptor) (domain or fragment, UniProt P23979 327-466, looked up)", "chain": "ETIFIVRLVHKQDLQRPVPDWLRHLVLDRIAWILCLGEQPMAHRPPATFQANKTDDCSGSDLLPAMGNHCSHVGGPQDLEKTPRGRGSPLPPPREASLAVRGLLQELSSIRHFLEKRDEMREVARDWLRVGYVLDRLLFR"}}, "target": "the molecule itself", "assay": "SEC", "data": [{"protein": "B1", "values": [{"measurement": "stoichiometry N", "result": 5}]}]}
